Source: patent publication US20110262445A1 (CEPHALON AUSTRALIA, published 2011)
Where a chain is given by its changes, count along the chain named.

T1: human IL-12 (human, UniProt P29460 23-328; P29459 23-219)
T1 construct: Recombinant (Peprotech); FLAG-tagged IL-12 in the flow cytometry assays, biotinylated in the IL-12Rβ2 assay; also called hIL-12
T1 sequence 1: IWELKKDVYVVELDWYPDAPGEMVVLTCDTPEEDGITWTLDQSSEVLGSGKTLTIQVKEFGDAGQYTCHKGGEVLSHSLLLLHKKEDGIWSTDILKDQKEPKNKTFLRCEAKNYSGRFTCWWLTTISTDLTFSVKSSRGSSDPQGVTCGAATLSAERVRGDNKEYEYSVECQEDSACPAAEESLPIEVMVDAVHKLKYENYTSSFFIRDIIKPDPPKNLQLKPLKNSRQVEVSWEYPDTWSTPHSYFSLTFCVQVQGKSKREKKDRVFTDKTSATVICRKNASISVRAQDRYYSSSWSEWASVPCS
T1 sequence 2: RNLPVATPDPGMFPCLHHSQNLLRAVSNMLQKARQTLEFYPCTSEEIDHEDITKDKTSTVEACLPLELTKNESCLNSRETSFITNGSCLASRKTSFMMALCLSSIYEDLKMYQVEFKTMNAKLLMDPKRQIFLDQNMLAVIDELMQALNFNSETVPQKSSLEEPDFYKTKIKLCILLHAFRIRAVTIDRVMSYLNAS

T2: human IL-23 (human, UniProt P29460 23-328; Q9NPF7 20-189)
T2 construct: Recombinant (Ebioscience); HIS-tagged in flow cytometry, biotinylated in some assays; also called hIL-23; rhIL-23
T2 sequence 1: T1 sequence 1
T2 sequence 2: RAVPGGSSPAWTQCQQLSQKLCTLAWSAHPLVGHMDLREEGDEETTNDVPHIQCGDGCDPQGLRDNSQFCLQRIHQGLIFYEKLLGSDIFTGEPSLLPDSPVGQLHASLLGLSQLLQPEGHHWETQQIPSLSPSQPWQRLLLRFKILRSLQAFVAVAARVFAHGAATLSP

B1: Antibody 175 (antibody, human IgG1, kappa, V domains shown)
VH: EVQLVQSGAEVKKPGATVKISCKASGYAFSDYYLHWVRQAPEKGLEWMGWIDPENGDTEYAPKFQGRVTITADTSTDTGYLELSSLRSEDTAVYYCAANKELRYFDVWGQGTLVTVSS
VL: DIQMTQSPSSVSASVGDRVTITCRASQSISINLHWYQQKPGKAPKLLIYFASQSISGVPSRFSGSGSGTDFSLTINSLQTEDFATYYCQQSNSFPLTFGGGTKVEIKR
B2: Antibody 191 (antibody, human IgG1, kappa, V domains shown)
VH: QVQLVQSGAEVKKPGASVKVSCKASGYTFTDYYLHWVRQAPGQGLEWMGWIDPENGDTEYAPKFQGRVTMTTDTSTSTAYMELRSLRSDDTAVYYCAANKELRYFDVWGQGTMVTVSS
VL: B1 VL
B3: Antibody 197 (antibody, human IgG1, kappa, V domains shown)
VH: B2 VH with Q43R
VL: B1 VL
B4: Antibody 179 (antibody, human IgG1, kappa)
heavy: not shown
light: DIQMTQSPSSVSASVGDRVTITCRASQSISINLHWYQQKPGKAPKLLIYFASQSISGVPSRFSGSGSGTDFSLTINSLQTEDFATYYCQQSNSFPLTFGGGTKVEIKRTVAAPSVFIFPPSDEQLKSGTASVVCLLNNFYPREAKVQWKVDNALQSGNSQESVTEQDSKDSTYSLSSTLTLSKADYEKHKVYACEVTHQGLSSPVTKSFNRGEC
B5: Antibody 196 (antibody, human IgG1, kappa, V domains shown)
VH: B2 VH with K12E, R67G
VL: B1 VL
B6: Antibody 5 (antibody, human IgG1, kappa, V domains shown)
VH: EVQLQQSGADLVRSGASIKLSCTASGFNIKDYYMHWVKQRPEQGLEWIGWIDPENGDTEYAPKFQGKATMTADTSSNTAYLQLSSLTSEDTAVYYCNAAKELRYFDVWGAGTTVTVSS
VL: DIVLTQSPATLSVTPGDSVSLSCRASQSISINLHWYQQKSHESPRLLIKFASQSISGIPSRFSGYGSGTDFTLSINSVETEDFGRYFCQQSNSWPLTFGAGTKLELKR
B7: Antibody 12 (antibody, human IgG1, kappa, V domains shown)
VH: B6 VH with A99H
VL: B6 VL
B8: Antibody 10 (antibody, human IgG1, kappa, V domains shown)
VH: B6 VH with A99Q
VL: B6 VL
B9: Antibody 8 (antibody, human IgG1, kappa, V domains shown)
VH: B6 VH with A99D
VL: B6 VL
B10: Antibody 11 (antibody, human IgG1, kappa, V domains shown)
VH: B6 VH with A99G
VL: B6 VL
B11: Antibody 9 (antibody, human IgG1, kappa, V domains shown)
VH: B6 VH with A99E
VL: B6 VL

molecular target: T1, human IL-12; test: ELISA, coated IL-12
Protocol: (§1) IL-12 (Peprotech), IL-23 (Ebioscience™), IL-12p40 (Ebioscience™) or IL-12p80 (Peprotech), was diluted to 1 μg/mL in carbonate coating buffer ([…] pH 9.6) and coated onto a 96 well plate (Nunc™, Maxisorp™) overnight at 4° C. The plate was then washed three times with wash buffer (0.01M PBS pH 7.2, 0.05% Tween-20) and then three times with 0.01M PBS pH 7.2. The wells were then blocked by adding 200 μl of blocking buffer (1% w/v BSA in 0.01 M PBS pH 7.2) to each well and incubating the plate at 25° C. for 1 hour. The antibody was diluted in antibody diluent (1% w/v BSA, 0.05% Tween-20 in 0.01M PBS pH 7.2) sufficient to generate a titration curve. The wells were incubated with the antibody for 1 hour at 25° C. The plate was then washed as previously described. Goat anti-human immunoglobulin G (H+L) antibody HRP conjugate (Zymed®) at 1:2000 in antibody diluent was used to detect bound primary antibody. Goat anti-murine immunoglobulin antibody HRP conjugate (Dako) at 1:2000 in antibody diluent was used to detect bound murine antibody. After incubation at 25° C. for 1 hour the plate was washed again as previously described. TMB substrate solution (Zymed®) was added to each well and the colour allowed to develop; the reaction was terminated by adding 1M HCl to the wells. The absorbance of each well was determined at 450 nm (ref. 620 nm).

Binding result, binds:
B1
B2
B3
B4
B5

molecular target: T1, human IL-12; test: ELISA, coated IL-12; remark: another data set of the same source
Outline: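 Each value is an absorbance measuring binding. Plates (Maxisorp) carried cytokine coated at 1 μg/mL in carbonate buffer pH 9.6 overnight at 4° C, were blocked with 1% BSA in PBS for 1 hour at 25° C, and received antibody titrations for 1 hour at 25° C. Detection used goat anti-human IgG or anti-murine immunoglobulin HRP at 1:2000 for 1 hour, then TMB stopped with 1M HCl, with absorbance taken at 450 nm (reference 620 nm).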

Binding result, binds:
B6
B7
B8
B9
B10
B11

molecular target: T2, human IL-23; test: ELISA, coated IL-23
Protocol: as §1

Binding result, binds:
B1
B2
B3
B4
B5

molecular target: T2, human IL-23; test: ELISA, coated IL-23; remark: another data set of the same source
Protocol: This cysteine at the start of CDR3 could be oxidized, causing heterogeneity in any resulting antibody product. It could also form complexes by disulphide bond formation. Therefore, each of the other 18 (the exceptions being the original Cys and Trp) amino acids was substituted in this position using gene synthesis, and the antibodies were expressed transiently (Antibodies 5, 6, 7, 8, 9, 10, 11, 12, 13, 14, 15, 16, 17, 18, 19, 20, 21, 22). An ELISA was performed on these antibodies (FIG. 9). Some of the antibodies retained binding activity for both IL-12 and IL-23, others only for one cytokine or the other, while others minimally bound to either cytokine.
as §1

Binding result, binds:
B6
B7
B8
B9
B10
B11
